Data from US20230103407A1 (UNIVERSITY OF CINCINNATI, published 2023).
Blank lines part the entries; values can stand above or below the binder they belong to.

Experiments:
[1] = target: T1, acid β-glucosidase (GCase), Velaglucerase alfa (human, UniProt P04062 40-536, Chain 1 is a glycoprotein with N-linked, mannose-terminated oligosaccharides, which the letters do not carry.); experiment: microscale thermophoresis (MST), NBD-PS labelled vesicles, CP buffer pH 5.6
T1 construct: also called free GCase; human GCase
T1 sequence: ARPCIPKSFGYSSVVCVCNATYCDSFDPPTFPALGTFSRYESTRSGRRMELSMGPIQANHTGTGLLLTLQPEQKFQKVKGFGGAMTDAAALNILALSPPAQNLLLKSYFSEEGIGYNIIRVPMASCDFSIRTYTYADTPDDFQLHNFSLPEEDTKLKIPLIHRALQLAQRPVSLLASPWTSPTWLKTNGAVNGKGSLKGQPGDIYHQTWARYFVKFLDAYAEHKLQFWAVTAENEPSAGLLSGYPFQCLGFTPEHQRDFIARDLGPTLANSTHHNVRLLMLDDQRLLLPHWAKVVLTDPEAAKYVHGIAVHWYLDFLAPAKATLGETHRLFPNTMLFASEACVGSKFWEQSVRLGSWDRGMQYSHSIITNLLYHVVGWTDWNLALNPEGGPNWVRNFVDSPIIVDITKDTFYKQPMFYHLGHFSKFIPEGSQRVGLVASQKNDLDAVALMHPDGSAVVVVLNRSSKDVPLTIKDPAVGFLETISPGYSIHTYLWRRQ
Description: (§1) Binding was determined by measuring Kd using a Microscale Thermophoresis (MST) assay system on a Monolith NT.115. MicroScale NanoTemper. Temperature related intensity change (TRIC) together with thermophoresis contribution to the variation of fluorescence intensity was determined. NBD-PS [2-(4-nitro-2,1,3-benzoxadiazol-7-yl)aminoethyl-phophatidylserine (Avanti Polar Lipids Inc., Alabaster, Ala.) was used to fluorescently label DOPS. DOPS in chloroform was mixed with NBD-PS in DMSO at the molar ratio of 3:1. The organic solvent was evaporated under nitrogen gas. Upon suspension in CP buffer (0.1 M Citrate Phosphate buffer, pH 5.6), the mixture solutions were bath sonicated for 30 mins at 4° C. This preparation was tested with SapC or SapB to measure the Kd for binding to DOPS. […]
(§2) The final concentration of the reaction mixtures ranged from GCase/SapC-DOPS-NBD of 1562 nM/7500 nM for the 1st point to 0.024 nM/7500 nM for the 16th point (FIG. 16, Table 3). […] The thermophoresis time was 30 secs with dual reading setting (LED: 20%/40%; MST: 40%/50%). […] The raw data were analyzed to determine Kd values and plotted using MO Affinity Analysis v2.1.3 software (NanoTemper, München, Germany).

[2] = target: T1, acid β-glucosidase (GCase), …; experiment: microscale thermophoresis (MST); unlabelled GCase titrated against NBD-PS labelled SapC-DOPS, CP buffer pH 5.6
Description: as §1, §2

- binding result [1]: no binding
B1: saposin B (SapB)-DOPS (other, UniProt P07602 195-273, looked up)
chain: GDVCQDCIQMVTDIQTAVRTNSTFVQALVEHVKEECDRLGPGMADICKNYISQYSEIAIQMMMHMQPKEICALVGFCDE
notes: SapB formulated with DOPS at a 1:7 molar ratio and labelled with NBD-PS

- Kd [2]: 29.4 nM
B2: SapC-DOPS nanovesicles (saposin C with dioleoylphosphatidylserine) (other)
chain: SDVYCEVCEFLVKEVTKLIDNNKTEKEILDAFDKMCSKLPKSLSEECQEVVDTYGSSILSILLEEVSPELVCSMLHLCSG
